Measured values published in US20140221622A1 (AbbVie / Abbott, published 2014).
Residue numbers refer to the chain shown, from its start. Like-named read-outs stand apart in the source and are kept apart here.

Experiments:
[1] = target: EGFR on EGFR-expressing target cells (UniProt P00533 25-1210, limits assumed); assay: cell-based or functional assay
[2] = target: T1, CD3 on Jurkat cells (UniProt P07766 23-207); assay: flow cytometry on Jurkat cells, Alexa Fluor 488 anti-human IgG Fc
T1 construct: whole, on cells; CD3 is a multi-chain complex; also called CD3 antigen
Method: 0.5×10⁶ of Jurkat or NCI-N87 cells were washed with FACS buffer (1% BSA/PBS) and resuspended in 50 ul of FACS buffer. mAbs or Fab-bodies were prepared in 50 ul of FACS buffer and mixed with cells and incubated at 4° C. for 1 hr.

[3] = target: T2, biotin-labeled cMet (UniProt P08581 25-932, limits assumed, biotin label (site not stated)); assay: c-Met binding ELISA by the method of Example 1.3
T2 construct: also called cMet antigen

[4] = target: T3, c-Met on tumor cell lines (A549, IM-95, SNU-5, SNU-620) (UniProt P08581 25-1390, limits assumed); assay: cell-based or functional assay
[5] = target: T3, c-Met on tumor cell lines (A549, IM-95, …); assay: cell-based or functional assay; remark: listed apart in the source
[6] = target: T4, Neonatal Fc receptor (FcRn) on CHO-FcRnGPI cells; assay: flow cytometry on CHO-FcRnGPI cells, pH 6.4
T4 construct: whole, on cells; nothing more is said; also called FcRn receptors
Method: CHO-FcRnGPI cells (Stable FcRn receptor expressor) and CHO-pBudl l cells (non-FcRn expressor) were aliquotted into 96-well plates at 1×10⁵ cells/well. Cells were resuspended in 150 μl FACS buffer. […] 30 μl of diluted antibody or half-Ig binding protein was added to each well and incubated on ice for 1 hour. Following 2 washes with FACS buffer, 50 μl of secondary antibody R-phycoerythrin-conjugated AfiniPure F(ab′)2 Fragment goat anti-human IgG (Jackson ImmunoResearch, West Grove, Pa.) diluted in FACS buffer pH 6.4 or pH7.4 was added. The mixture was incubated for 30 min on ice. The cells were resuspended in 100 μl PBS with 1% FBS (Invitrogen, Carlsbad, Calif.) and 2 μg/ml propidium iodide (Invitrogen, Carlsbad, Calif.) of the corresponding pH. Final FACS data were acquired on a FACScan (Becton Dickinson, Franklin Lakes, N.J.).

[7] = target: T2, biotin-labeled cMet; assay: ELISA: antibody captured on anti-IgG Fc coat, bound biotin-labeled cMet detected with streptavidin-HRP
Method: (§1) cMet binding ELISA was performed to characterize the antigen binding property of cMet antibodies. 96-well ELISA plates were coated with 100 μl/well 5 μg/ml anti-mouse IgG Fc in PBS at 4° C. overnight. After 3 washes with PBS/0.05% Tween®20, the plates were blocked with 5% milk in PBS for 1 hour at room temperature. After another 3 washes with PBS/0.05% Tween®20, 100 μl cMet antibody was added to each well followed by an incubation of 1 hour at room temperature. Binding biotin-labeled cMet was detected by Streptavidin-horseradish peroxidase (KPL, Gaithersburg, Md.) and tetramethylbenzidine (Thermo Scientific, Rockford, Ill.). Final absorbances were acquired at 450 nm after stopping the reactions with 2 mol/L H₂SO₄. […] The terms EC₅₀ and IC₅₀ may be used interchangeably in this Example to reflect the concentration of the antibody which induces a response halfway between the baseline and the maximum after a specified exposure time.

[8] = target: T2, biotin-labeled cMet; assay: as above; remark: listed apart in the source
Method: as §1

[9] = target: T5, rhcMetECD (cMet extracellular domain) (human, UniProt P08581 25-932); assay: SPR (Biacore 3000), binding protein captured on anti-human IgG Fc, rhcMetECD injected, 1:1 Langmuir fit, 25 C
T5 construct: extracellular domain; also called cMet antigen
Method: The kinetics of MBody binding to rhcMetECD (extracellular domain) was determined by surface plasmon resonance-based measurements with a Biacore 3000 instrument (Biacore AB, Uppsala, Sweden) using HBS-EP (10 mM HEPES, pH 7.4, 150 mM NaCl, 3 mM EDTA, and 0.005% surfactant P20) at 25° C. […] Approximately, 5000 RU of goat anti-human IgG Fcγ fragment specific polyclonal antibody (Pierce Biotechnology Inc, Rockford, Ill.) diluted in 10 mM sodium acetate (pH 4.5) was directly immobilized across a CM5 research grade biosensor chip using a standard amine coupling kit according to manufacturer's instructions and procedures at 25 mg/ml. Unreacted moieties on the biosensor surface were blocked with ethanolamine. Modified carboxymethyl dextran surface in flowcell 2 and 4 was used as a reaction surface. Unmodified carboxymethyl dextran without goat anti-human IgG in flow cell 1 and 3 was used as the reference surface. For kinetic analysis, rate equations derived from the 1:1 Langmuir binding model were fitted simultaneously to association and dissociation phases of all ten injections (using global fit analysis) using the Bioevaluation 4.0.1 software. Purified MBody samples were diluted in HEPES-buffered saline for capture across goat anti-human IgG Fc specific reaction surfaces and injected over reaction matrices at a flow rate of 5 ml/min. […] The equilibrium dissociation constant (M) of the reaction between MBody and rhcMetECD was then calculated from the kinetic rate constants by the following formula: KD=koff/kon. Aliquots of rhcMetECD samples were also simultaneously injected over a blank reference and reaction CM surface to record and subtract any nonspecific binding background to eliminate the majority of the refractive index change and injection noise. Surfaces were regenerated with two subsequent 25 ml injections of 10 mM Glycine (pH 1.5) at a flow rate of 5 ml/min.

[10] = target: T5, rhcMetECD (cMet extracellular domain); assay: SPR (Biacore 3000), apparent stoichiometry at saturating rhcMetECD
From the text: Unreacted moieties on the biosensor surface were blocked with ethanolamine. Modified carboxymethyl dextran surface in flowcell 2 and 4 was used as a reaction surface. Unmodified carboxymethyl dextran without goat anti-human IgG in flow cell 1 and 3 was used as the reference surface. For kinetic analysis, rate equations derived from the 1:1 Langmuir binding model were fitted simultaneously to association and dissociation phases of all ten injections (using global fit analysis) using the Bioevaluation 4.0.1 software. Purified MBody samples were diluted in HEPES-buffered saline for capture across goat anti-human IgG Fc specific reaction surfaces and injected over reaction matrices at a flow rate of 5 ml/min. […] The equilibrium dissociation constant (M) of the reaction between MBody and rhcMetECD was then calculated from the kinetic rate constants by the following formula: KD=koff/kon. Aliquots of rhcMetECD samples were also simultaneously injected over a blank reference and reaction CM surface to record and subtract any nonspecific binding background to eliminate the majority of the refractive index change and injection noise. […] The apparent stoichiometry of the captured MBody-rhcMetECD complex was calculated under saturating binding conditions (steady-state equilibrium) using the following formula:

[11] = target: T6, CD40 on CD40-overexpressing HEK 293 cells (UniProt P25942 21-277, limits assumed); assay: cell-based or functional assay
[12] = target: T6, CD40 on CD40-overexpressing HEK 293 …; assay: flow cytometry on CD40-overexpressing HEK 293 cells, APC anti-human Fc
Method: Followed by 30 min incubation on ice with an APC-conjugated anti-human Fc antibody. Cells then are washed twice and resuspended in PBS/FBS. Fluorescence was measured using a Becton Dickinson FACSCalibur (Becton Dickinson, San Jose, Calif.).

[13] = target: T6, CD40 on CD40-overexpressing HEK 293 …; assay: as above; remark: listed apart in the source
Method: First, the CD40-overexpressing HEK 293 cells were stained with hIgG1 or testing material at a range of 0.01 μg/ml to 10 μg/ml. Followed by 30 min incubation on ice with an APC-conjugated anti-human Fc antibody. Cells then are washed twice and resuspended in PBS/FBS. Fluorescence was measured using a Becton Dickinson FACSCalibur (Becton Dickinson, San Jose, Calif.).
The binding of proteins were examined by FACS.

T6 sequence (P25942 21-277 limits assumed): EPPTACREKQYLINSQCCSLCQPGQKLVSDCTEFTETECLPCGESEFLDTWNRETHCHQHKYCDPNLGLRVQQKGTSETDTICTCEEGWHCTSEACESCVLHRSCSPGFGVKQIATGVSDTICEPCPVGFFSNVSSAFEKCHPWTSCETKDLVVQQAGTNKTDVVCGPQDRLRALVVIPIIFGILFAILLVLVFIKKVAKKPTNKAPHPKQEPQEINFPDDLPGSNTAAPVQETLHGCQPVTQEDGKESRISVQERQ
T4 sequence (P55899 24-297, chain 1 of 2): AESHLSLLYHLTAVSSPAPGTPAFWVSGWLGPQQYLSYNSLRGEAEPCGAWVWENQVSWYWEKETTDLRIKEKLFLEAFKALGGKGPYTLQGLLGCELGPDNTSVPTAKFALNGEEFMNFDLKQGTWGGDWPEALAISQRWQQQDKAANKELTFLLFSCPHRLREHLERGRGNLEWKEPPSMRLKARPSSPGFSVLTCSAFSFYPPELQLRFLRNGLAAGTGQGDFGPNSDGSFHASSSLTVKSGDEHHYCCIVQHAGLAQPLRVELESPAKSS
T4 sequence (P61769 21-119, chain 2 of 2, further chain): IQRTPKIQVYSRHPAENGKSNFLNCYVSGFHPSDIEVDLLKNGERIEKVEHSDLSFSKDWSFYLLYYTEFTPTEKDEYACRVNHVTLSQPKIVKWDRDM
T5 sequence (P08581 25-932): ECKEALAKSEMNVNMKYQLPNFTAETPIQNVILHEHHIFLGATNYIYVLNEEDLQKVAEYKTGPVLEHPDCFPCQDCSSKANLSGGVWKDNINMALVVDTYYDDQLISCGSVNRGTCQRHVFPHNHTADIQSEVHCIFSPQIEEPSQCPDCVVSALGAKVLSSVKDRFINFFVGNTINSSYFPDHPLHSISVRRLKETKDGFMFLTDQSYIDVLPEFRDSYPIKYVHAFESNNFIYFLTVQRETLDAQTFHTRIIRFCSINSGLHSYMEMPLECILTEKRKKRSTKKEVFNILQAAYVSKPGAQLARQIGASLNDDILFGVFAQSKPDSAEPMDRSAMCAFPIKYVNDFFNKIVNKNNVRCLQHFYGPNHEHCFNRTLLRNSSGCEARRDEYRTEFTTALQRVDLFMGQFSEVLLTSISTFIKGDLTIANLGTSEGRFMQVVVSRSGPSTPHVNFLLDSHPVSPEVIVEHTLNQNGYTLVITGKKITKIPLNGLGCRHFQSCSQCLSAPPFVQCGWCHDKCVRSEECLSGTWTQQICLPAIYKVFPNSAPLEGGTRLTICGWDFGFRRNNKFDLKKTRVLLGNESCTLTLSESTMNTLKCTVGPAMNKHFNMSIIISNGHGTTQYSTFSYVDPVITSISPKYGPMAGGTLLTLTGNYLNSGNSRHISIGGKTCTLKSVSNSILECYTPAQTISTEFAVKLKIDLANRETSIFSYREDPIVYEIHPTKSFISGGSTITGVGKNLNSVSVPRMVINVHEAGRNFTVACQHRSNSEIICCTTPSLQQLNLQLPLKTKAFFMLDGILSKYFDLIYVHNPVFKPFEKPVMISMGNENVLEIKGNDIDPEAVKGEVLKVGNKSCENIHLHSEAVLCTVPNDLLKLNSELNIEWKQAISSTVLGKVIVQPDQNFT
T2 sequence (P08581 25-932 limits assumed): as the sequence (P08581 25-932) above
T3 sequence (P08581 25-1390 limits assumed): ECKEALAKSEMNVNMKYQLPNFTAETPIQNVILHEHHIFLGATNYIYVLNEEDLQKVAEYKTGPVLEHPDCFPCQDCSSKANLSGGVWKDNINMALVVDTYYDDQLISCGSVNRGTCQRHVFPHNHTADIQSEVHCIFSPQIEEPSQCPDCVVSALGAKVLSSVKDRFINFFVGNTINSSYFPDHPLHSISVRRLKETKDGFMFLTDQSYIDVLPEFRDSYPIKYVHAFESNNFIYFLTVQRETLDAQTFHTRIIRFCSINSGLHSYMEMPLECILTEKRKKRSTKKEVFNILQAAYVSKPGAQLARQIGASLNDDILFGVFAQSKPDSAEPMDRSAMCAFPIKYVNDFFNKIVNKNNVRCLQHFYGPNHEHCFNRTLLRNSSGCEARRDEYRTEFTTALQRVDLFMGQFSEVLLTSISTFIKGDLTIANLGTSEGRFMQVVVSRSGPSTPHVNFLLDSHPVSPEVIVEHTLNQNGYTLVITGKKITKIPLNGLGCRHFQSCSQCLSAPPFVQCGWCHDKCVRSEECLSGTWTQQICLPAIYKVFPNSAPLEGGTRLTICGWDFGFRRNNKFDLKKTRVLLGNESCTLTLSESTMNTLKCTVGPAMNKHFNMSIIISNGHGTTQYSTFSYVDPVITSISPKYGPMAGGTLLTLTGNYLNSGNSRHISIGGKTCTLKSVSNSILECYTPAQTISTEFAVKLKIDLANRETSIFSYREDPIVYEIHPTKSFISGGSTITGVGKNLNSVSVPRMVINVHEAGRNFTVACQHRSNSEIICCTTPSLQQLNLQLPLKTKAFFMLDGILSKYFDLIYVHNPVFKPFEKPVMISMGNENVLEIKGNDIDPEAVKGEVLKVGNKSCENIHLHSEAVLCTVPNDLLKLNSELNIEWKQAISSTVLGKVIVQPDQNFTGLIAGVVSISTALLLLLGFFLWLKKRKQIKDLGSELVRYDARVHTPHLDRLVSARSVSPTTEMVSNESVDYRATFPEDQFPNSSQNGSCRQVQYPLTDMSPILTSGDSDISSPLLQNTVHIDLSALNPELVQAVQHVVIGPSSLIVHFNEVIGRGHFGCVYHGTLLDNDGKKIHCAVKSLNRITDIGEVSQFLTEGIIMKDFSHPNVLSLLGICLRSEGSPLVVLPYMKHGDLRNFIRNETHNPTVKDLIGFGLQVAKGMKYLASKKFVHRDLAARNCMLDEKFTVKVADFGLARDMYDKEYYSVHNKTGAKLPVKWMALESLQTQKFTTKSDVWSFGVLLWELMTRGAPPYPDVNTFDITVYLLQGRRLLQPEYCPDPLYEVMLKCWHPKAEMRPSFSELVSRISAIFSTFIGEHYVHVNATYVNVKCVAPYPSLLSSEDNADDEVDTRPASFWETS

B1: DB001 DVD-Ig (CD3 and EGFR) (bispecific antibody)
VH: QVQLQESGPGLVKPSQTLSLTCTVSGYSISSDFAWNWIRQPPGKGLEWMGYISYSGNTRYQPSLKSRITISRDTSKNQFFLKLNSVTAADTATYYCVTAGRGFPYWGQGTLVTVSSASTKGPEVQLVESGGGLVQPGGSLRLSCAASGFTFSTYAMNWVRQAPGKGLEWVGRIRSKYNNYATYYADSVKDRFTISRDDSKNTAYLQMNSLRAEDTAVYYCTRHGNFGNSYVSWFAYWGQGTLVTVSS
VL: DIQMTQSPSSMSVSVGDRVTITCHSSQDINSNIGWLQQKPGKSFKGLIYHGTNLDDGVPSRFSGSGSGTDYTLTISSLQPEDFATYYCVQYAQFPWTFGGGTKLEIKTVAAPSVFIFPPDAQVTQSPSSLSASVGDRVTITCRSSTGAVTTSNYANWVQEKPGKLFKGLIGGTNKRAPGVPSRFSGSGSGTDATLTISSLQPEDFATYFCALWYSNLWVFGGGTKVEIKR
notes: also called parental DVD-Ig
- Redirected Cytotoxicity (rCTL), EC50 [1]: 1.5 nM
- EC50 [2]: 74 nM

B2: MetMAb1 (antibody, V domains shown)
VH: EVQLVESGGGLVQPGGSLRLSCAASGYTFTSYWLHWVRQAPGKGLEWVGMIDPSNSDTRFNPNFKDRFTISADTSKNTAYLQMNSLRAEDTAVYYCATYRSYVTPLDYWGQGTLVTVSS
VL: DIQMTQSPSSLSASVGDRVTITCKSSQSLLYTSSQKNYLAWYQQKPGKAPKLLIYWASTRESGVPSRFSGSGSGTDFTLTISSLQPEDFATYYCQQYYAYPWTFGQGTKVEIKR
notes: also called monovalent c-Met antibody MetMAb1
- EC50 [3]: 0.27 nM
- Inhibition of HGF-induced phospho-c-Met IC50 (A549 cells) [4]: 3.8 nM
- Inhibition of IM-95 proliferation (HGF-dependent) IC50 [4]: 17.4 nM
- Inhibition of SNU-5 proliferation (constitutively active c-Met) IC50 [4]: > 600 nM
- Inhibition/induction of SNU-620 proliferation (constitutively active c-Met but still HGF-inducible) IC50 [4]: > 600 nM

B3: anti-cMet h5D5 Fab-body (antibody, human IgG1, kappa, V domains shown)
VH: B2 VH
VL: B2 VL
notes: Monovalent Fab-Fc heterodimer: LFc chain (VL-CL-linker-Fc knob) and HFc chain (VH-CH1-linker-Fc hole)
- EC50 [3]: 0.24 nM
- Inhibition of HGF-induced phospho-c-Met IC50 (A549 cells) [4]: 2.6 nM
- Inhibition of IM-95 proliferation (HGF-dependent) IC50 [4]: 12.8 nM
- Inhibition of SNU-5 proliferation (constitutively active c-Met) IC50 [4]: 4.1 nM
- Inhibition/induction of SNU-620 proliferation (constitutively active c-Met but still HGF-inducible) IC50 [4]: > 600 nM

B4: cMet Ig (anti-cMet antibody, 5D5 variable domains on human Cg1/Ck) (antibody, human IgG1, kappa)
heavy: not shown
light: DFMMSQSPSSLTVSVGEKVTVSCKSSQSLLYTSSQKNYLAWYQQKPGQSPKLLIYWASTRESGVPDRFTGSGSGTDFTLTITSVKADDLAVYYCQQYYAYPWTFGGGTKLELKRTVAAPSVFIFPPSDEQLKSGTASVVCLLNNFYPREAKVQWKVDNALQSGNSQESVTEQDSKDSTYSLSSTLTLSKADYEKHKVYACEVTHQGLSSPVTKSFNRGEC
notes: VH/VL cloned from hybridoma HB-11895 (5D5.11.6) into pHybE-hCg1,z,non-a and pHybE-hCk; also called cMet mAb; parental cMet mAb
- Inhibition of IM95 Proliferation, EC50 [5]: 0.17 µg/mL
- EC50 [6]: 53.3 µg/mL
- EC50 [7]: 0.35 nM
- EC50 [8]: 0.3 nM
- Kd [9]: 2.67 nM
- koff [9]: 0.000214 s⁻¹
- kon [9]: 80300 M⁻¹ s⁻¹
- Stoichiometry [10]: 1.51

B5: cMet mAb KH (cMet mAb with knobs-into-holes mutations) (antibody, human IgG1, kappa)
heavy 1: not shown
heavy 2: not shown
light: B4 light
- EC50 [6]: 44.4 µg/mL
- Kd [9]: 2.08 nM
- koff [9]: 0.000195 s⁻¹
- kon [9]: 93600 M⁻¹ s⁻¹
- Stoichiometry [10]: 1.53

B6: cMet AA4 Ig (antibody, human IgG1, kappa, V domains shown)
VH: QVQLQQSGPELVRPGASVKMSCRASGYTFTSYWLHWVKQRPGQGLEWIGMIDPSNSDTRFNPNFKDKATLNVDRSSNTAYMLLSSLTSADSAVYYCATYGSYAAPLDYWGQGTSVTVSS
VL: DFMMSQSPSSLTVSVGEKVTVSCKSSQSLLYTSSQKNYLAWYQQKPGQSPKLLIYWASTRESGVPDRFTGSGSGTDFTLTITSVKADDLAVYYCQQYYAYPWTFGGGTKLELKR
notes: HC CDR3 alanine-scanning mutant paired with the common cMet LC; also called Anti-cMet-AA4
- EC50 [8]: 1.24 nM

B7: cMet AA1 Ig (antibody, human IgG1, kappa, V domains shown)
VH: B6 VH with T98A, A103V, A104S
VL: B6 VL
notes: HC CDR3 alanine-scanning mutant paired with the common cMet LC; also called Anti-cMet-AA1
- EC50 [8]: 7.25 nM

B8: cMet AA6 KH MBody (antibody, human IgG1, kappa)
heavy 1: not shown
heavy 2: not shown
light: B4 light
- Inhibition of IM95 Proliferation, EC50 [5]: 1.86 µg/mL
- EC50 [6]: 51.1 µg/mL

B9: cMet AA3 KH MBody (antibody, human IgG1, kappa)
heavy 1: not shown
heavy 2: not shown
light: B4 light
- Inhibition of IM95 Proliferation, EC50 [5]: 2.14 µg/mL
- EC50 [6]: 38 µg/mL

B10: cMet AA6 HK MBody (antibody, human IgG1, kappa)
heavy 1: not shown
heavy 2: not shown
light: B4 light
- Inhibition of IM95 Proliferation, EC50 [5]: 2.73 µg/mL
- EC50 [6]: 47.1 µg/mL

B11: cMet AA3 HK MBody (antibody, human IgG1, kappa)
heavy 1: not shown
heavy 2: not shown
light: B4 light
- Inhibition of IM95 Proliferation, EC50 [5]: 1.6 µg/mL
- EC50 [6]: 34.8 µg/mL

B12: cMet AA2 HK MBody (antibody, human IgG1, kappa)
heavy 1: not shown
heavy 2: not shown
light: B4 light
- Inhibition of IM95 Proliferation, EC50 [5]: 0.23 µg/mL
- EC50 [6]: 31.5 µg/mL

B13: Anti-human c-Met antibody 5D5 (antibody, V domains shown)
VH: B6 VH with A103V, A104S
VL: B6 VL
notes: VH and VL are those cloned from hybridoma HB-11895 (5D5.11.6); also called bivalent antibody 5D5
- EC50 [3]: 0.08 nM
- Inhibition of HGF-induced phospho-c-Met IC50 (A549 cells) [4]: 1.4 nM
- Inhibition of IM-95 proliferation (HGF-dependent) IC50 [4]: 5.8 nM
- Inhibition of SNU-5 proliferation (constitutively active c-Met) IC50 [4]: > 600 nM

B14: 5D5 Fab (Fab, V domains shown)
VH: B6 VH with A103V, A104S
VL: B6 VL
- Inhibition of HGF-induced phospho-c-Met IC50 (A549 cells) [4]: 5.9 nM
- Inhibition of IM-95 proliferation (HGF-dependent) IC50 [4]: 55.7 nM
- Inhibition of SNU-5 proliferation (constitutively active c-Met) IC50 [4]: > 600 nM
- Inhibition/induction of SNU-620 proliferation (constitutively active c-Met but still HGF-inducible) IC50 [4]: > 600 nM

B15: cMet AA5 Ig (antibody, human IgG1, kappa, V domains shown)
VH: B6 VH with A103V, A104S
VL: B6 VL
notes: the intended AA5 mutation is not visible; also called Anti-cMet-AA5
- EC50 [8]: 1.81 nM

B16: Anti-CD40 Ig (21.4.1 variable domains on human Cg1/Ck) (antibody, human IgG1, kappa)
heavy: not shown
light: DIQMTQSPSSVSASVGDRVTITCRASQGIYSWLAWYQQKPGKAPNLLIYTASTLQSGVPSRFSGSGSGTDFTLTISSLQPEDFATYYCQQANIFPLTFGGGTKVEIKRTVAAPSVFIFPPSDEQLKSGTASVVCLLNNFYPREAKVQWKVDNALQSGNSQESVTEQDSKDSTYSLSSTLTLSKADYEKHKVYACEVTHQGLSSPVTKSFNRGEC
- agonist activity, NFkB-SEAP reporter in HEK 293 cells, EC50 [11]: 0.12 µg/mL
- EC50 [12]: 0.24 µg/mL
- EC50 [13]: 0.084 µg/mL

B17: Anti-CD40 YA (antibody, human IgG1, kappa, V domains shown)
VH: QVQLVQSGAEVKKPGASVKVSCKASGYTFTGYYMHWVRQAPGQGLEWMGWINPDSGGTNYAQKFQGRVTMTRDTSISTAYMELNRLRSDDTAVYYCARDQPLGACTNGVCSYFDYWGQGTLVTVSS
VL: DIQMTQSPSSVSASVGDRVTITCRASQGIYSWLAWYQQKPGKAPNLLIYTASTLQSGVPSRFSGSGSGTDFTLTISSLQPEDFATYYCQQANIFPLTFGGGTKVEIKR
- EC50 [13]: 0.095 µg/mL

B18: Anti-CD40 LYNV (antibody, human IgG1, kappa, V domains shown)
VH: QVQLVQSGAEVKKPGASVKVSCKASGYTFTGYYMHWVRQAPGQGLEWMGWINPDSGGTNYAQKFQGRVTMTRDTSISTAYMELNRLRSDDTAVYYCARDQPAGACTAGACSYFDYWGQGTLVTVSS
VL: B17 VL
- binding result [13]: no binding (tested: 0.01 µg/ml to 10 µg/ml)

B19: Anti-CD40 VA (antibody, human IgG1, kappa, V domains shown)
VH: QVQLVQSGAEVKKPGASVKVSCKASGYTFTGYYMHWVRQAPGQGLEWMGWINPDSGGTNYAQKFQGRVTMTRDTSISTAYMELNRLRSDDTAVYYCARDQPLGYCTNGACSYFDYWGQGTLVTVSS
VL: B17 VL
- EC50 [13]: 0.125 µg/mL

B20: Anti-CD40 LA (antibody, human IgG1, kappa, V domains shown)
VH: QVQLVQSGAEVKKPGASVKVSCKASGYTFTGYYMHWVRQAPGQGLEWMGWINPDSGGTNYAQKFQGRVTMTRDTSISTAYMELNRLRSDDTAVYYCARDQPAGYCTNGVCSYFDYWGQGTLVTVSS
VL: B17 VL
- EC50 [13]: 0.189 µg/mL

B21: Anti-CD40 YNV (antibody, human IgG1, kappa, V domains shown)
VH: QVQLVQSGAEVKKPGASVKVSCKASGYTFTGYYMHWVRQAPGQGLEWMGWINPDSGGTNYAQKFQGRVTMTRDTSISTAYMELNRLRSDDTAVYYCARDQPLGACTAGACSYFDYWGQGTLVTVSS
VL: B17 VL
- binding result [13]: no binding (tested: 0.01 µg/ml to 10 µg/ml)

B22: Anti-CD40 NA (antibody, human IgG1, kappa, V domains shown)
VH: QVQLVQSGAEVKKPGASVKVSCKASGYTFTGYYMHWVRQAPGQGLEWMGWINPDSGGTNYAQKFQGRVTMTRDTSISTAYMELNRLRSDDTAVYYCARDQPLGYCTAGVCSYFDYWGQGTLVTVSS
VL: B17 VL
- EC50 [13]: 2.12 µg/mL
